The assay addresses T1, HLA-A*01:01 (human).
T1 construct: MHC class I monomer first loaded with a UV-sensitive peptide (not identified) that is cleaved by UV irradiation and exchanged for the tested peptide; captured on streptavidin plates, detected with anti-β2m; also called peptide-receptive MHC molecules
Kind of assay: UV-ligand exchange, anti-b2m ELISA. The text has this: Candidate peptides for T cell based therapies according to the present invention were further tested for their MHC binding capacity (affinity). The individual peptide-MHC complexes were produced by UV-ligand exchange, where a UV-sensitive peptide is cleaved upon UV-irradiation and exchanged with the peptide of interest as analyzed. Only peptide candidates that can effectively bind and stabilize the peptide-receptive MHC molecules prevent dissociation of the MHC complexes. To determine the yield of the exchange reaction, an ELISA was performed based on the detection of the light chain (β2m) of stabilized MHC complexes. The assay was performed as generally described in Rodenko et al. (Rodenko et al., 2006)
96 well MAXISorp plates (NUNC) were coated over night with 2 ug/ml streptavidin in PBS at room temperature, washed 4× and blocked for 1 h at 37° C. in 2% BSA containing blocking buffer. Refolded HLA-A*02:01/MLA-001 monomers served as standards, covering the range of 15-500 ng/ml. Peptide-MHC monomers of the UV-exchange reaction were diluted 100-fold in blocking buffer. Samples were incubated for 1 h at 37° C., washed four times, incubated with 2 ug/ml HRP conjugated anti-β2m for 1 h at 37° C., washed again and detected with TMB solution that is stopped with […]. Absorption was measured at 450 nm.
In general terms: An ELISA detects its analyte on a solid surface through an enzyme-linked reagent.
Take ITDTLIHLM: the peptide exchange yield lay within 50 to 75%.

Take ISEDKSISF: the peptide exchange yield lay in the range of 20 to 50%. For VSERTGISY the value was 50 to 75%; for LEDGIEQSAY, 20 to 50%; for EAYLERIGY, 50 to 75%. Take DAVAPGREY: the peptide exchange yield was 20 to 50%. For TVFDENLSRY the value was 20 to 50%; for TPIPFDKILY, 20 to 50%. For IEKFAVLY the value was 50 to 75%; for TFDKQIVLL, 20 to 50%.

Molecule PVHDSVGVTY had a peptide exchange yield of 20 to 50%.

As to YIGLKGLYF, the peptide exchange yield was 20 to 50%. For YTDFVGEGLY the value was 50 to 75%; for SAPSSSGSPLY, 20 to 50%; for VVFDKSDLAKY, 20 to 50%.

Take EVVEGKEWGSFY: the peptide exchange yield fell in the range of 50 to 75%.

Molecule VPFNLITEY registered a peptide exchange yield of 10 to 20%. The molecule TTENSGNYY came in with a peptide exchange yield of more than 75%. For RRLNFSGFGY, the peptide exchange yield lay within 50 to 75%. Take KASSVSAEDGY: the peptide exchange yield fell in the range of 20 to 50%. In the case of ASDHWRGRY, the peptide exchange yield lay in the range of 50 to 75%.

In the case of SPAKQFNIY, the peptide exchange yield was 50 to 75%. Turning to LCATVCGTEQY, the peptide exchange yield fell in the range of 20 to 50%. NSNLKFLEV displayed a peptide exchange yield of 20 to 50%.

The molecule RTIEGDFLW displayed a peptide exchange yield of 20 to 50%. Then IPVHDSVGVTY, with 50 to 75%; and IGDKVDAVY, with 20 to 50%. Then ASCRSSAEY, with more than 75%; and RSDIGEFEW, with 20 to 50%. Then LSDAVHVEF, with 50 to 75%; and NEIDIHSIYFY, with 20 to 50%. As to LLKAKDILY, the peptide exchange yield lay in the range of 20 to 50%. Then NTHTGTRPY, with 20 to 50%. Then QSEKEPGQQY, with 50 to 75%; and FLKVTGYDKDDY, with 20 to 50%. For YTEFVDATFTK the value was more than 75%. SADEAHGLL yielded a peptide exchange yield of 20 to 50%. Then LTWAHSAKY, with 50 to 75%.

In the case of TLDSTRTLY, the peptide exchange yield is more than 75%. Regarding HVSGQMLYF, the peptide exchange yield lay in the range of 20 to 50%. Then TTDPKKFQY, with more than 75%; and STIDFRAGF, with 20 to 50%. For ITDVGPGNY the value was 50 to 75%. For ISEAPLTEV the value was 20 to 50%; for ITDTLIHL, 20 to 50%; for RTHIGYKVY, 50 to 75%. As for FQYELRELY, the peptide exchange yield was more than 75%.

SQHIFTVSY had a peptide exchange yield of 20 to 50%. Then AVAAAAGASLY, with 20 to 50%.

(Values after patent publication US20200087364A1 (IMMATICS BIOTECHNOLOGIES, published 2020).)
